Reference: patent publication US20240343800A1 (Merck KGaA, published 2024)

How the values were obtained:
[1] = target: T1, cynomolgus CD3 (on cynomolgus pan-T cells) (cynomolgus, UniProt Q95LI5 22-198); assay: flow cytometry, cynomolgus pan-T cells
T1 construct: whole, on cells
Description: (§1) After 15-minutes of incubation at room temperature, the cells were washed twice with 200 μL of PBS by centrifugation at 500×g for 5 minutes at room temperature and resuspended in […] of 10% goat serum in BD staining buffer (BD Biosciences, Cat No: 554657). […] The plates were then covered with foil to avoid direct light and incubated for 60 minutes at 4° C. […] After incubating for 30 minutes at 4° C., the cells were washed twice with 200 μL of PBS by centrifugation at 500×g for 5 minutes at room temperature and resuspended into 100 μL of fixation buffer (BioLegend, Cat No: 420801). The samples were then analyzed on a flow cytometer for binding signal using FlowJo software. ROR and CD3 binding EC₅₀s (concentration vs mean fluorescence intensity (MFI)) for reference molecules and test bispecific TCEs were obtained using 4-parameter non-linear regression curve fitting in GraphPad Prism.

human ROR1 (on cells) [2] = target: T2, human ROR1 (on cells) (human, UniProt Q01973 30-937); assay: cell-based or functional assay
human ROR1 (on cells) [3] = target: T2, human ROR1 (on cells); assay: cell-based or functional assay; remark: listed apart in the source
human ROR1 (on cells) [4] = target: T2, human ROR1 (on cells); assay: flow cytometry, ROR1+ MDA-MB-231 cells
Description: as §1

human ROR1 (on cells) [5] = target: T2, human ROR1 (on cells); assay: cell-based or functional assay; remark: listed apart in the source
[6] = target: T3, mouse ROR1 (on 4T1 cells engineered to overexpress it) (mouse, UniProt Q9Z139 30-937); assay: flow cytometry, 4T1 cells overexpressing mouse ROR1
T3 construct: whole, on cells; also called muROR1; mROR1
Description: as §1

[7] = target: T4, human CD3 (on Jurkat T cells or human CD8+ T cells) (human, UniProt P07766 23-207; P09693 23-182; P04234 22-171; P20963 22-164); assay: flow cytometry, human CD8+ T cells
T4 construct: Entries are printed with signal peptides; also called huCD3; CD3ε
T4 sequence (P07766 23-207 limits assumed, chain 1 of 4): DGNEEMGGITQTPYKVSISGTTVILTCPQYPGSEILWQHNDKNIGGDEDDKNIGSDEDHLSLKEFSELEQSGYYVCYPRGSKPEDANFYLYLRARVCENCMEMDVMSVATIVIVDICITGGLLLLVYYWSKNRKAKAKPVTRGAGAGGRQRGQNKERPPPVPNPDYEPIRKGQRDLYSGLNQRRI
T4 sequence (P09693 23-182 limits assumed, chain 2 of 4): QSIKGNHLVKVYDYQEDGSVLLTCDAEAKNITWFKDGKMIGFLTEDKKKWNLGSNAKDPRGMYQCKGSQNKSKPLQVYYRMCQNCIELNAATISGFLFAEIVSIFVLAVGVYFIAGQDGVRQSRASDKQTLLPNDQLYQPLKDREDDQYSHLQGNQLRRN
T4 sequence (P04234 22-171 limits assumed, chain 3 of 4): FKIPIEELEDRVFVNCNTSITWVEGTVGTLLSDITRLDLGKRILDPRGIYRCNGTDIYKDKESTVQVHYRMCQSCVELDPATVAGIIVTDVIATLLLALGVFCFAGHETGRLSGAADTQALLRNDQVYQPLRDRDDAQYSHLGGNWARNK
T4 sequence (P20963 22-164 limits assumed, chain 4 of 4): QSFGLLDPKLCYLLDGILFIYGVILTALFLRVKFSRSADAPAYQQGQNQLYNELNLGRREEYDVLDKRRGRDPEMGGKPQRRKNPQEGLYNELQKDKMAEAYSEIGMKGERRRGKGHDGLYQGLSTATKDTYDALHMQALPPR
Description: as §1

human ROR1 (on cells) [8] = target: T2, human ROR1 (on cells); assay: cell-based or functional assay; remark: listed apart in the source
[9] = target: T3, mouse ROR1 (on 4T1 cells engineered to …); assay: flow cytometry; reference: human ROR1 on MDA-MB-231 cells

T1 sequence (Q95LI5 22-198): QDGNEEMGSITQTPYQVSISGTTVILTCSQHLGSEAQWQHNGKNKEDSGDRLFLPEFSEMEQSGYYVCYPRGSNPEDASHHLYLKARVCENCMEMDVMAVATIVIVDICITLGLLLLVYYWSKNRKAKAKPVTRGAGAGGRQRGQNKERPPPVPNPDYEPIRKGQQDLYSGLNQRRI

B1: 82H02 TCE #1 (sequence optimized 82H02 bispecific TCE in Format 1A, high ROR1 / high CD3 affinity) (bispecific antibody)
heavy 1: EVQLVESGGGLVQPGGSLKLSCAASGFTFNTYAMNWVRQASGKGLEWVGRIRSKYNNYATYYADSVKGRFTISRDDSKNTLYLQMNSLKTEDTAVYYCVRHGNFGASYVSWFAYWGQGTMVTVSSASTKGPSVFPLAPSSKSTSGGTAALGCLVKDYFPEPVTVSWNSGALTSGVHTFPAVLQSSGLYSLSSVVTVPSSSLGTQTYICNVNHKPSNTKVDKKVEPKSCDKTHTCPPCPAPEAAGGPSVFLFPPKPKDTLMISRTPEVTCVVVDVSHEDPEVKFNWYVDGVEVHNAKTKPREEQYNSTYRVVSVLTVLHQDWLNGKEYKCKVSNKALGAPIEKTISKAKGQPFRPEVHLLPPSREEMTKNQVSLTCLARGFYPKDIAVEWESNGQPENNYKTTPSRQEPSQGTTTFAVTSKLTVDKSRWQQGNVFSCSVMHEALHNHYTQKTISLSPGK
heavy 2: EIVLTQSPATLSLSPGERATLSCRASQSVSSYLAWYQQKPGQAPRLLIYDASNRATGIPARFSGSGSGTDFTLTISSLEPEDFAVYYCQQRSNWPPSTFGQGTRLEIKGGGGSGGGGSGGGGSGGGGSEVQLLESGGGLVQPGGSLRLSCAASGFTFTSYAMSWVRQAPGKGLEWVSTISGSGGGTYYTDSVKGRFTISRDNSKNTLYLQMNSLRAEDTAVYYCAQGSSIFDYWGQGTLVTVSSEPKSSDKTHTCPPCPAPEAAGGPSVFLFPPKPKDTLMISRTPEVTCVVVDVSHEDPEVKFNWYVDGVEVHNAKTKPREEQYNSTYRVVSVLTVLHQDWLNGKEYKCKVSNKALGAPIEKTISKAKGQPREPQVYTLPPPSEELALNELVTLTCLVKGFYPSDIAVEWLQGSQELPREKYLTWAPVLDSDGSFFLYSILRVAAEDWKKGDTFSCSVMHEALHNHYTQKSLDRSPGKGGGGSGGGGSGGGGSGGGGSEIVLTQSPATLSLSPGERATLSCRASQSVSSYLAWYQQKPGQAPRLLIYDASNRATGIPARFSGSGSGTDFTLTISSLEPEDFAVYYCQQRSNWPPSTFGQGTRLEIKGGGGSGGGGSGGGGSGGGGSEVQLLESGGGLVQPGGSLRLSCAASGFTFTSYAMSWVRQAPGKGLEWVSTISGSGGGTYYTDSVKGRFTISRDNSKNTLYLQMNSLRAEDTAVYYCAQGSSIFDYWGQGTLVTVSS
light: QAVVTQEPSLTVSPGGTVTLTCRSSTGAVTTSNYANWVQQKPGQAPRGLIGGTNKRAPGTPARFSGSLLGGKAALTLSGVQPEDEAEYYCALWYSNLWVFGGGTKLTVLGQPKAAPSVTLFPPSSEELQANKATLVCLISDFYPGAVTVAWKADSSPVKAGVETTTPSKQSNNKYAASSYLSLTPEQWKSHRSYSCQVTHEGSTVEKTVAPTECS
notes: also called 82H02 #1; 82H02 VL1.07x1F3.5-VH1.03
With B1 the EC50 [1] was 4.1 nM, the “IFNγ release EC50, PBMCs: MDA-MB-231” value (human ROR1 (on cells) [2]) was 205 nM and the “Max IFNγ, PBMCs: MDA-MB-231” value (human ROR1 (on cells) [2]) was 1120 pg/mL. For the same binder, the “TDCC EC50, PBMCs: MDA-MB-231” value (human ROR1 (on cells) [3]) was 24.6 nM, the EC50 (human ROR1 (on cells) [4]) was 0.81 nM and the “IFNγ release AUC, PBMCs: MDA-MB-231-0.2” value (human ROR1 (on cells) [5]) was 2.09e+06. For the same binder, the “IFNγ release AUC, PBMCs: MDA-MB-231-0.4” value (human ROR1 (on cells) [5]) was 2.43e+06, the “IFNγ release AUC, PBMCs: MDA-MB-231-0.6” value (human ROR1 (on cells) [5]) was 3.15e+06 and the “IFNγ release AUC, PBMCs: MDA-MB-231-1.3” value (human ROR1 (on cells) [5]) was 4.93e+06. For the same binder, the “IFNγ release AUC, PBMCs: MDA-MB-231-7” value (human ROR1 (on cells) [5]) was 5.16e+06, the “IFNγ release EC50, PBMCs: MDA-MB-231-0.2” value (human ROR1 (on cells) [5]) was 0.143 nM and the “IFNγ release EC50, PBMCs: MDA-MB-231-0.4” value (human ROR1 (on cells) [5]) was 0.123 nM. For the same binder, the “IFNγ release EC50, PBMCs: MDA-MB-231-0.6” value (human ROR1 (on cells) [5]) was 0.0803 nM, the “IFNγ release EC50, PBMCs: MDA-MB-231-1.3” value (human ROR1 (on cells) [5]) was 0.0243 nM and the “IFNγ release EC50, PBMCs: MDA-MB-231-7” value (human ROR1 (on cells) [5]) was 0.0204 nM. The “IFNγ release Emax, PBMCs: MDA-MB-231-0.2” value (human ROR1 (on cells) [5]) was 2860%, the “IFNγ release Emax, PBMCs: MDA-MB-231-0.4” value (human ROR1 (on cells) [5]) was 3050% and the “IFNγ release Emax, PBMCs: MDA-MB-231-0.6” value (human ROR1 (on cells) [5]) was 3980%. The “IFNγ release Emax, PBMCs: MDA-MB-231-1.3” value (human ROR1 (on cells) [5]) was 5260%, the “IFNγ release Emax, PBMCs: MDA-MB-231-7” value (human ROR1 (on cells) [5]) was 5420% and the EC50 [6] was 2.19 nM. For the same binder, the EC50 [7] was 2.8 nM, the “TDCC AUC, PBMCs: MDA-MB-231-0.2” value (human ROR1 (on cells) [8]) was 39000 and the “TDCC AUC, PBMCs: MDA-MB-231-0.4” value (human ROR1 (on cells) [8]) was 50200. The “TDCC AUC, PBMCs: MDA-MB-231-0.6” value (human ROR1 (on cells) [8]) was 57100, the “TDCC AUC, PBMCs: MDA-MB-231-1.3” value (human ROR1 (on cells) [8]) was 64800 and the “TDCC AUC, PBMCs: MDA-MB-231-7” value (human ROR1 (on cells) [8]) was 74200. For the same binder, the “TDCC EC50, PBMCs: MDA-MB-231-0.2” value (human ROR1 (on cells) [8]) was 0.0119 nM, the “TDCC EC50, PBMCs: MDA-MB-231-0.4” value (human ROR1 (on cells) [8]) was 0.0103 nM and the “TDCC EC50, PBMCs: MDA-MB-231-0.6” value (human ROR1 (on cells) [8]) was 0.01 nM. The “TDCC EC50, PBMCs: MDA-MB-231-1.3” value (human ROR1 (on cells) [8]) was 0.00703 nM, the “TDCC EC50, PBMCs: MDA-MB-231-7” value (human ROR1 (on cells) [8]) was 0.00433 nM and the “TDCC Emax, PBMCs: MDA-MB-231-0.2” value (human ROR1 (on cells) [8]) was 40.7%. The “TDCC Emax, PBMCs: MDA-MB-231-0.4” value (human ROR1 (on cells) [8]) was 52.2%, the “TDCC Emax, PBMCs: MDA-MB-231-0.6” value (human ROR1 (on cells) [8]) was 60.2% and the “TDCC Emax, PBMCs: MDA-MB-231-1.3” value (human ROR1 (on cells) [8]) was 66.5%. For the same binder, the “TDCC Emax, PBMCs: MDA-MB-231-7” value (human ROR1 (on cells) [8]) was 75.8% and the “fold difference in apparent ROR1 binding affinity between human and mouse ROR1” value [9] was about 3 fold.
